Assays:
[1] = molecular target: T1, (His)6-NLRP1 (NLR family, pyrin domain-containing 1), purified recombinant full-length protein from Sf21 cells (human) (UniProt Q9C000); test: enzyme kinetics of the reconstituted NLRP1 inflammasome (Caspase-1 activity on Ac-WEHD-AMC); Ki from the competitive inhibition equation
T1 sequence: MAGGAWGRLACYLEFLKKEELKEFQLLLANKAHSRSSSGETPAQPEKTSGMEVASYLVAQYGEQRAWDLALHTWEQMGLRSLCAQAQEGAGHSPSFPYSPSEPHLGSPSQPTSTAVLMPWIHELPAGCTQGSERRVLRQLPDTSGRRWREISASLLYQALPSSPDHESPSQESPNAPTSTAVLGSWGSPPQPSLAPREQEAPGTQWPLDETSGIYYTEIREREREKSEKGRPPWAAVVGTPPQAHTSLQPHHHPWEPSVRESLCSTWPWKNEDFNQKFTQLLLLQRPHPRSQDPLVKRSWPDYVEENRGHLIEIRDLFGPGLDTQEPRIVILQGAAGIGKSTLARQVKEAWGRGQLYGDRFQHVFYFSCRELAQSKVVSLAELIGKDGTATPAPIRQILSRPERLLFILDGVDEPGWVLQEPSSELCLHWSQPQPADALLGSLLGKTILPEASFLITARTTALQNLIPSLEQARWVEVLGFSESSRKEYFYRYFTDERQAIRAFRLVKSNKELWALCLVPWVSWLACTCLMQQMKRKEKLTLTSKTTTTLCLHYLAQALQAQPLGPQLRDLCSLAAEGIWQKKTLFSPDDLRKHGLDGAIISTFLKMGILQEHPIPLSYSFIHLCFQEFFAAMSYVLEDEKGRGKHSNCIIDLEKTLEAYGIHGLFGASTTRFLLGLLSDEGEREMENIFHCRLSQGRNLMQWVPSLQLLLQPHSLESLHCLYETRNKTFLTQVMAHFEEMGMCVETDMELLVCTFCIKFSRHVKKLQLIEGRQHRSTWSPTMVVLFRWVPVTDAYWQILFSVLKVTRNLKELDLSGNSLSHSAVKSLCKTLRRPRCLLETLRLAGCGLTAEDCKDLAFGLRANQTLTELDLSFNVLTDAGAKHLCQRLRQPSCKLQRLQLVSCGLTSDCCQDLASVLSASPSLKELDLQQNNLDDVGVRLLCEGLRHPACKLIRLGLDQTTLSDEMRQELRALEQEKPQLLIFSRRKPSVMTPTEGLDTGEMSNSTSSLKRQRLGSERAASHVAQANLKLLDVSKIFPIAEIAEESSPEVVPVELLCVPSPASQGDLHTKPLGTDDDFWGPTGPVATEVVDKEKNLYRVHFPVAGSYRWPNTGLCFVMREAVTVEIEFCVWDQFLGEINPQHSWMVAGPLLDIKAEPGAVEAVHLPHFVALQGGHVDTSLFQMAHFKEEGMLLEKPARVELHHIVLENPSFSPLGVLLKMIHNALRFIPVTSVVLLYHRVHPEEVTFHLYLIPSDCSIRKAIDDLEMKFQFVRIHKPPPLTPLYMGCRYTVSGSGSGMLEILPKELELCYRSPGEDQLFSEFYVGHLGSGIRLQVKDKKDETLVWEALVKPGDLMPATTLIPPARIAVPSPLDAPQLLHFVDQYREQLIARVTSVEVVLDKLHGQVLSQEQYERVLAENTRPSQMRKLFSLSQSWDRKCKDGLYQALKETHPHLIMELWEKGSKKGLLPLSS

[2] = molecular target: T1, (His)6-NLRP1 (NLR family, pyrin domain-containing 1), purified recombinant full-length protein from Sf21 cells (human); test: cell-based or functional assay

Row | Substance | Ki [1] [nM] | FITC-ATP binding to NLRP1 (FPA), reduction [2] [%] | IC50 (concentration to inhibit NLRP1-induced Caspase-1 activity by 50%) [2] [nM]
1 | GST-Bcl-2 (Bcl-2 lacking its C-terminal transmembrane domain, ~last 20 amino acids) (from UniProt P08515 1-218; P10415 1-218) | 8.23 | 60 | 
2 | Bcl-2 Loop peptide 35-83 (synthetic) |  |  | 11.4

From patent US20100093623A1, “COMPOSITIONS AND METHODS FOR […]-LIKE RECEPTOR ACTIVITY AND USES THEREOF” (Burnham Institute for Medical Research, priority 2008, published 2010)
